Km and kcat data for 1 protein are collected here from paper PMC6044951.

The term Km denotes the substrate concentration at which the rate is half of its maximum. The kcat is the number of substrate molecules converted per active site and unit of time at saturation.

Substrate in this data set: O=c1ccn([C@@H]2O[C@H](CO[P@@](=O)(O)O[P@@](=O)(O)O[C@H]3O[C@H](CO)[C@@H](O)[C@H](O)[C@H]3O)[C@@H](O)[C@H]2O)c(=O)[nH]1
Nature of the data set: purified protein. Conditions: 30 °C, Michaelis-Menten fit.

B1: BcsA-BcsB (Cereibacter sphaeroides 2.4.1) (protein)
chain: MTVRAKARSPLRVVPVLLFLLWVALLVPFGLLAAAPVAPSAQGLIALSAVVLVALLKPFADKMVPRFLLLSAASMLVMRYWFWRLFETLPPPALDASFLFALLLFAVETFSISIFFLNGFLSADPTDRPFPRPLQPEELPTVDILVPSYNEPADMLSVTLAAAKNMIYPARLRTVVLCDDGGTDQRCMSPDPELAQKAQERRRELQQLCRELGVVYSTRERNEHAKAGNMSAALERLKGELVVVFDADHVPSRDFLARTVGYFVEDPDLFLVQTPHFFINPDPIQRNLALGDRCPPENEMFYGKIHRGLDRWGGAFFCGSAAVLRRRALDEAGGFAGETITEDAETALEIHSRGWKSLYIDRAMIAGLQPETFASFIQQRGRWATGMMQMLLLKNPLFRRGLGIAQRLCYLNSMSFWFFPLVRMMFLVAPLIYLFFGIEIFVATFEEVLAYMPGYLAVSFLVQNALFARQRWPLVSEVYEVAQAPYLARAIVTTLLRPRSARFAVTAKDETLSENYISPIYRPLLFTFLLCLSGVLATLVRWVAFPGDRSVLLVVGGWAVLNVLLVGFALRAVAEKQQRRAAPRVQMEVPAEAQIPAFGNRSLTATVLDASTSGVRLLVRLPGVGDPHPALEAGGLIQFQPKFPDAPQLERMVRGRIRSARREGGTVMVGVIFEAGQPIAVRETVAYLIFGESAHWRTMREATMRPIGLLHGMARILWMAAASLPKTARDFMDEPARRRRRHEEPKEKQAHLLAFGTDFSTEPDWAGELLDPTAQVSARPNTVAWGSN
Take B1: the Km came to 340 ± 70 µM and the kcat was found to be 0.43 ± 0.17 s⁻¹.
